This assay concerns the target microtubule polymers (alpha/beta tubulin). The assay is described as follows: co-sedimentation.

B1: Smc5-2KE hinge domain (residues 215 to 885, K624E K631E) (domain or fragment)
chain: LRELQGNEQSLQKDLDFKKAKIVHLRQESDKLRKSVESLRDFQNKKGEIELHSQLLPYVKVKDHKEKLNIYKEEYERAKANLRAILKDKKPFANTKKTLENQVEELTEKCSLKTDEFLKAKEKINEIFEKLNTIRDEVIKKKNQNEYYRGRTKKLQATIISTKEDFLRSQEILAQTHLPEKSVFEDIDIKRKEIINKEGEIRDLISEIDAKANAINHEMRSIQRQAESKTKSLTTTDKIGILNQDQDLKEVRDAVLMVREHPEMKDKILEPPIMTVSAINAQFAAYLAQCVDYNTSKALTVVDSDSYKLFANPILDKFKVNLRELSSADTTPPVPAETVRDLGFEGYLSDFITGDKRVMKMLCQTSKIHTIPVSRRELTPAQIKKLITPRPNGKILFKRIIHGNRLVDIEQSAYGSEQVFPTDVSIKQTNFYQGSIMSNEQKIRIENEIINLKNEYNDRKSTLDALSNQKSGYRHELSELASKNDDINREAHQLNEIRKKYTMRKSTIETLREKLDQLKREARKDVSQKIKDIDDQIQQLLLKQRHLLSKMASSMKSLKNCQKELISTQILQFEAQNMDVSMNDVIGFFNEREADLKSQYEDKKKFVKEMRDTPEFQSWMREIRSYDQDTKEKLNKVAEKYEEEGNFNLSFVQDVLDKLESEIAMVNHDES
Regarding B1, the fold reduction in binding affinity against wild-type Smc5 amounted to 3 fold.

These data come from paper doi:10.1101/2024.11.13.623393.
